The values below come from patent US20040002593A1 (BURNHAM INSTITUTE, published 2004).

One data set deals with T1, ASC in pGilda (human, UniProt Q9ULZ3 1-195).
T1 construct: Yeast two-hybrid construct
The experiment in a line: yeast two-hybrid, Leu read-out. The method, then:
(§1) Colonies were plated on both LEU+ and LEU− media and also used for a β-Gal-assay.

Another data set addresses T2, ASC-CARD in pGilda (human, UniProt Q9ULZ3 107-195).
T2 construct: domain: CARD; Yeast two-hybrid construct; also called CARD domain of ASC
T2 sequence (looked up): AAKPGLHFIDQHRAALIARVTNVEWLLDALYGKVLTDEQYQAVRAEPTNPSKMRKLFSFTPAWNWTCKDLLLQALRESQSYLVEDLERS
The experiment in a line: yeast two-hybrid, β-Gal read-out. The procedure: as §1

B1: endogenous IKKα (protein)
chain: MERPPGLRPGAGGPWEMRERLGTGGFGNVCLYQHRELDLKIAIKSCRLELSTKNRERWCHEIQIMKKLNHANVVKACDVPEELNILIHDVPLLAMEYCSGGDLRKLLNKPENCCGLKESQILSLLSDIGSGIRYLHENKIIHRDLKPENIVLQDVGGKIIHKIIDLGYAKDVDQGSLCTSFVGTLQYLAPELFENKPYTATVDYWSFGTMVFECIAGYRPFLHHLQPFTWHEKIKKKDPKCIFACEEMSGEVRFSSHLPQPNSLCSLVVEPMENWLQLMLNWDPQQRGGPVDLTLKQPRCFVLMDHILNLKIVHILNMTSAKIISFLLPPDESLHSLQSRIERETGINTGSQELLSETGISLDPRKPASQCVLDGVRGCDSYMVYLFDKSKTVYEGPFASRSLSDCVNYIVQDSKIQLPIIQLRKVWAEAVHYVSGLKEDYSRLFQGQRAAMLSLLRYNANLTKMKNTLISASQQLKAKLEFFHKSIQLDLERYSEQMTYGISSEKMLKAWKEMEEKAIHYAEVGVIGYLEDQIMSLHAEIMELQKSPYGRRQGDLMESLEQRAIDLYKQLKHRPSDHSYSDSTEMVKIIVHTVQSQDRVLKELFGHLSKLLGCKQKIIDLLPKVEVALSNIKEADNTVMFMQGKRQKEIWHLLKIACTQSSARSLVGSSLEGAVTPQTSAWLPPTSAEHDHSLSCVVTPQDGETSAQMIEENLNCLGHLSTIIHEANEEQGNSMMNLDWSWLTE
B1: the “TNFα-induced activation of endogenous IKKα (in vitro kinase assay, phosphorylation of GST-IKBα substrate by immunoprecipitated IKKα)” value in the data set with Myc-ASC-PAAD is “ASC-PAAD potently suppressed TNFα-induced activation of endogenous IKKα in these cells”.

B2: ASC-CARD in pJG 4-5 (other, human, UniProt Q9ULZ3 107-195, looked up, not shown: large carriers)
chain: T2 sequence (looked up)
notes: domain: CARD; Yeast two-hybrid construct; also called CARD domain of ASC
For B2, the binding result in the data set with ASC in pGilda and with ASC-CARD in pGilda was “binds” each time.
